Assay results taken from the supplement of paper PMC11246515.
± gives the standard deviation of the averaged measurements.

Assay: total protein half-life in vivo (active degradation + dilution); higher = more stable protein
[1] = E. coli NCM3722 delta-clpP delta-lon delta-hslV, growth: N-lim chemostat, doubling time 6 h
[2] = E. coli NCM3722 delta-clpP, growth: N-lim chemostat, doubling time 6 h
[3] = wild type E. coli NCM3722, growth: C-lim chemostat, doubling time 12 h
[4] = wild type E. coli NCM3722, growth: N-lim chemostat, doubling time 12 h
[5] = E. coli NCM3722 delta-hslV, growth: N-lim chemostat, doubling time 6 h
[6] = E. coli NCM3722 delta-lon, growth: N-lim chemostat, doubling time 6 h
[7] = wild type E. coli NCM3722, growth: C-lim chemostat, doubling time 3 h
[8] = wild type E. coli NCM3722, growth: C-lim chemostat, doubling time 6 h
[9] = wild type E. coli NCM3722, growth: N-lim chemostat, doubling time 6 h
[10] = wild type E. coli NCM3722, growth: P-lim chemostat, doubling time 12 h
[11] = E. coli NCM3722 delta-smpB, growth: N-lim chemostat, doubling time 6 h
[12] = wild type E. coli NCM3722, growth: P-lim chemostat, doubling time 6 h

Sequence | total protein half-life in vivo [1] [h] | total protein half-life in vivo [2] [h] | total protein half-life in vivo [3] [h] | total protein half-life in vivo [4] [h] | total protein half-life in vivo [5] [h] | total protein half-life in vivo [6] [h] | total protein half-life in vivo [7] [h] | total protein half-life in vivo [8] [h] | total protein half-life in vivo [9] [h] | total protein half-life in vivo [10] [h] | total protein half-life in vivo [11] [h] | total protein half-life in vivo [12] [h]
MTRIKINARRIFSLLIPFFFFTSVHAEQTAAPAKPVTVEAKNETFAPQHPDQYLSWKATSEQSERVDALAEDPRLVILWAGYPFSRDYNKPRGHAFAVTDVRETLRTGAPKNAEDGPLPMACWSCKSPDVARLIQKDGEDGYFHGKWARGGPEIVNNLGCADCHNTASPEFAKGKPELTLSRPYAARAMEAIGKPFEKAGRFDQQSMVCGQCHVEYYFDGKNKAVKFPWDDGMKVENMEQYYDKIAFSDWTNSLSKTPMLKAQHPEYETWTAGIHGKNNVTCIDCHMPKVQNAEGKLYTDHKIGNPFDNFAQTCANCHTQDKAALQKVVAERKQSINDLKIKVEDQLVHAHFEAKAALDAGATEAEMKPIQDDIRHAQWRWDLAIASHGIHMHAPEEGLRMLGTAMDKAADARTKLARLLATKGITHEIQIPDISTKEKAQQAIGLNMEQIKAEKQDFIKTVIPQWEEQARKNGLLSQ [P0ABK9] | 3.84 | 5.87 | > 16 | 10.5 ± 0.82 | – | – | – | – | – | – | – | –
MDDCGAILHNIETKWLYDFLTLEKCRNFSQAAVSRNVSQPAFSRRIRALEQAIGVELFNRQVTPLQLSEQGKIFHSQIRHLLQQLESNLAELRGGSDYAQRKIKIAAAHSLSLGLLPSIISQMPPLFTWAIEAIDVDEAVDKLREGQSDCIFSFHDEDLLEAPFDHIRLFESQLFPVCASDEHGEALFNLAQPHFPLLNYSRNSYMGRLINRTLTRHSELSFSTFFVSSMSELLKQVALDGCGIAWLPEYAIQQEIRSGKLVVLNRDELVIPIQAYAYRMNTRMNPVAERFWRELRELEIVLS | 5 ± 0.22 | – | – | – | 4.98 | 4.5 | 2.52 | 5.18 | 5.51 | 10.4 ± 0.27 | – | –
MNLNSIPAFDDNYIWVLNDEAGRCLIVDPGDAEPVLNAIAANNWQPEAIFLTHHHHDHVGGVKELVEKFPQIVVYGPQETQDKGTTQVVKDGETAFVLGHEFSVIATPGHTLGHICYFSKPYLFCGDTLFSGGCGRLFEGTASQMYQSLKKLSALPDDTLVCCAHEYTLSNMKFALSILPHDLSINDYYRKVKELRAKNQITLPVILKNERQINVFLRTEDIDLINVINEETLLQQPEERFAWLRSKKDRF [P0AC84] | 4.67 ± 0.3 | 4.24 ± 0.2 | 7.09 ± 1.1 | 6.316 ± 0.03 | 4.88 ± 0.89 | 4.5351 ± 0.0033 | 2.81 ± 0.13 | 4.76 ± 0.13 | 4.31 ± 0.21 | 8.75 ± 0.89 | 4.01 ± 0.41 | 4.81 ± 0.13
MQFDYIIIGAGSAGNVLATRLTEDPNTSVLLLEAGGPDYRFDFRTQMPAALAFPLQGKRYNWAYETEPEPFMNNRRMECGRGKGLGGSSLINGMCYIRGNALDLDNWAQEPGLENWSYLDCLPYYRKAETRDMGENDYHGGDGPVSVTTSKPGVNPLFEAMIEAGVQAGYPRTDDLNGYQQEGFGPMDRTVTPQGRRASTARGYLDQAKSRPNLTIRTHAMTDHIIFDGKRAVGVEWLEGDSTIPTRATANKEVLLCAGAIASPQILQRSGVGNAELLAEFDIPLVHELPGVGENLQDHLEMYLQYECKEPVSLYPALQWWNQPKIGAEWLFGGTGVGASNHFEAGGFIRSREEFAWPNIQYHFLPVAINYNGSNAVKEHGFQCHVGSMRSPSRGHVRIKSRDPHQHPAILFNYMSHEQDWQEFRDAIRITREIMHQPALDQYRGREISPGVECQTDEQLDEFVRNHAETAFHPCGTCKMGYDEMSVVDGEGRVHGLEGLRVVDASIMPQIITGNLNATTIMIGEKIADMIRGQEALPRSTAGYFVANGMPVRAKK | 5.76 ± 0.8 | – | > 16 | – | – | – | – | – | 2.75 | 4.08 | – | –
MFKSFFPKPGTFFLSAFVWALIAVIFWQAGGGDWVARITGASGQIPISAARFWSLDFLIFYAYYIVCVGLFALFWFIYSPHRWQYWSILGTALIIFVTWFLVEVGVAVNAWYAPFYDLIQTALSSPHKVTIEQFYREVGVFLGIALIAVVISVLNNFFVSHYVFRWRTAMNEYYMANWQQLRHIEGAAQRVQEDTMRFASTLENMGVSFINAIMTLIAFLPVLVTLSAHVPELPIIGHIPYGLVIAAIVWSLMGTGLLAVVGIKLPGLEFKNQRVEAAYRKELVYGEDDATRATPPTVRELFSAVRKNYFRLYFHYMYFNIARILYLQVDNVFGLFLLFPSIVAGTITLGLMTQITNVFGQVRGAFQYLINSWTTLVELMSIYKRLRSFEHELDGDKIQEVTHTLS [P0AFY6] | 5.51 ± 0.24 | 5.35 ± 0.061 | 11.3 ± 1.3 | 8.73 ± 0.38 | 5.4 ± 0.62 | 5.41 ± 0.43 | – | 4.97 ± 1.2 | – | – | 5.52 ± 0.15 | 5.77 ± 0.34
MKRINALTIAGTDPSGGAGIQADLKTFSALGAYGCSVITALVAQNTRGVQSVYRIEPDFVAAQLDSVFSDVRIDTTKIGMLAETDIVEAVAERLQRYQIQNVVLDTVMLAKSGDPLLSPSAVATLRSRLLPQVSLITPNLPEAAALLDAPHARTEQEMLEQGRSLLAMGCGAVLMKGGHLDDEQSPDWLFTREGEQRFTAPRIMTKNTHGTGCTLSAALAALRPRHTNWADTVQEAKSWLSSALAQADTLEVGHGIGPVHHFHAWW | 5.24 ± 0.81 | 5.47 ± 0.26 | 9.68 ± 4.2 | 7.38 ± 0.17 | 4.31 ± 0.15 | 4.49 ± 0.18 | 3.06 ± 0.055 | 5.96 ± 0.11 | 4.49 ± 0.61 | 9.53 ± 1.9 | 4.23 ± 0.093 | 5.89 ± 0.12
MELKATTLGKRLAQHPYDRAVILNAGIKVSGDRHEYLIPFNQLLAIHCKRGLVWGELEFVLPDEKVVRLHGTEWGETQRFYHHLDAHWRRWSGEMSEIASGVLRQQLDLIATRTGENKWLTREQTSGVQQQIRQALSALPLPVNRLEEFDNCREAWRKCQAWLKDIESARLQHNQAYTEAMLTEYADFFRQVESSPLNPAQARAVVNGEHSLLVLAGAGSGKTSVLVARAGWLLARGEASPEQILLLAFGRKAAEEMDERIRERLHTEDITARTFHALALHIIQQGSKKVPIVSKLENDTAARHELFIAEWRKQCSEKKAQAKGWRQWLTEEMQWSVPEGNFWDDEKLQRRLASRLDRWVSLMRMHGGAQAEMIASAPEEIRDLFSKRIKLMAPLLKAWKGALKAENAVDFSGLIHQAIVILEKGRFISPWKHILVDEFQDISPQRAALLAALRKQNSQTTLFAVGDDWQAIYRFSGAQMSLTTAFHENFGEGERCDLDTTYRFNSRIGEVANRFIQQNPGQLKKPLNSLTNGDKKAVTLLDESQLDALLDKLSGYAKPEERILILARYHHMRPASLEKAATRWPKLQIDFMTIHASKGQQADYVIIVGLQEGSDGFPAAARESIMEEALLPPVEDFPDAEERRLMYVALTRARHRVWALFNKENPSPFVEILKNLDVPVARKP | 6.73 ± 0.37 | 5.42 ± 0.098 | 8.95 ± 0.32 | 7.69 ± 0.31 | 4.93 ± 0.55 | 5.31 ± 0.26 | 2.66 ± 0.17 | 5.06 ± 0.43 | 4.45 ± 0.033 | 9.53 ± 0.42 | 4.17 ± 0.1 | 4.69 ± 0.16
